Data as given in paper PMC13245265.

Molecular target: Tectus dentatus superoxide dismutase 1 (Tectus dentatus)
Assay: SEC

stoichiometry N: 2
Substance: Tectus dentatus superoxide dismutase 1 (enzyme)
